# Measured values as given in the RNAGym collection of RNA variant scans (doi:10.1093/nar/gkz1192).
# B1: CPEB3 Ribozyme (parent)
# chain: UAACAGGGGGCCACAGCAGAAGCGUUCACGUCGCAGCCCCUGUCAGAUUCUGGUGAAUCUGCGAAUUCUGCUGUAUAUCUC
# Variants of: B1
# Experiment: self-cleavage, relative activity (ratio to wild type); higher = more cleavage; in vitro, sequencing
# In short: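 Relative activity compares each variant's cleaved/total read fraction with that of the unmutated ribozyme. To get these fractions, barcoded CPEB3 ribozyme libraries from rounds of error-prone PCR were transcribed with T7 RNA polymerase for 5 hours at 37°C and then given 15 min of DNase I treatment before EDTA was added. The RNAs were reverse transcribed with template switching and sequenced on Illumina, and DNA sequencing linked barcodes to variants. A minimum of 5 reads applied, and three batches were averaged.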
row,Variant,self-cleavage
1,A35G U58C,1.23
2,A35G U58G,1.09
3,A35U G55C,0.47
4,A35U G55U,0.43
5,A35U A57C,0.31
6,A35U A57U,0.2
7,A35U A57G,0.47
8,G36A U43C,0.29
9,A35C U76C,0.96
10,A35C U76G,0.77
11,A35C U72G,0.43
12,A35C U72C,1.14
13,A35U A64G,0.39
14,A35U A64U,0.48
15,A35U A64C,0.16
16,A35G C79A,1.3
17,A35G C79U,1.51
18,G36A C39G,0.16
19,A35U U60A,0.25
20,A35U U60C,0.24
21,A35U U60G,0.17
22,A35G U41C,1.23
23,A35G U41G,0.33
24,A35G U41A,0.44

row,Variant,self-cleavage
1,A35G G52C,1.27
2,A35G G52A,1.36
3,A35G G52U,1.36
4,G36A C44G,0.14
5,A35G U43G,0.36
6,A35G U43C,1.22
7,A35G U43A,1.28
8,A35U U58C,0.27
9,A35U U58A,0.32
10,A35U U58G,0.15
11,A35U G61U,0.42
12,A35U G61A,0.27
13,A35G A45G,1.26
14,A35G A45C,1.17
15,A35G A45U,1.13
16,A35U A47C,0.4
17,A35U A47U,0.26
18,A35U A47G,0.48
19,A35G A75C,1.25
20,A35G A75U,1.27
21,A35G A75G,1.31
22,G36A A56G,0.19
23,G36A U76C,0.28
24,G36A U76G,0.4

row,Variant,self-cleavage
1,G36C A64G,0.16
2,A35G G53U,1.27
3,A35G G53A,1.33
4,A35G U78C,1.3
5,A35G U78G,1.29
6,A35G U78A,1.35
7,A35U A56U,0.33
8,A35U A56G,0.5
9,A35U A56C,0.23
10,A35G U51G,1.28
11,A35G U51C,1.27
12,A35G U51A,1.32
13,A35U C38A,0.21
14,A35U C38U,0.47
15,A35C U51C,0.79
16,A35C U51A,1
17,A35U C81G,0.39
18,A35U C81U,0.61
19,A35G G36C,0.29
20,A35G G36U,0.5
21,A35G G36A,0.92
22,G36A A47G,0.34
23,G36A A47U,0.13
24,A35G A77G,1.39

row,Variant,self-cleavage
1,A35G A77C,1.27
2,A35G A77U,1.28
3,A35G A56G,1.27
4,A35G A56U,1.24
5,A35G A56C,1.27
6,A35U G53A,0.51
7,A35U G53U,0.76
8,G36A A45U,0.27
9,G36A A45G,0.21
10,A35C C50A,0.92
11,A35G C37G,0.89
12,A35G C37A,0.86
13,A35U C39U,0.49
14,A35U C39A,0.27
15,A35C C39A,0.31
16,G36A U49C,0.21
17,G36C A56U,0.13
18,G36C A56G,0.21
19,G36A A57G,0.17
20,A35G U66A,1.34
21,A35G U66G,1.26
22,A35G U66C,1.17
23,G36A A75U,0.36
24,G36A A75C,0.28

row,Variant,self-cleavage
1,G36C A57U,0.13
2,A35U G73A,0.88
3,A35C G55U,0.81
4,A35G A57U,1.22
5,A35G A57G,1.27
6,A35G U67G,1.11
7,A35G U67A,1.2
8,A35G U67C,0.56
9,A35C A45C,0.31
10,A35C A45U,0.24
11,A35C C38A,0.2
12,A35U C71U,0.37
13,A35U C71A,0.13
14,A35U C71G,0.15
15,G36A U60A,0.18
16,G36A U60C,0.13
17,G36A U41A,0.18
18,G36A U41C,0.56
19,A35U U51G,0.47
20,A35U U51A,0.56
21,A35U U51C,0.46
22,G36A C71U,0.15
23,A35U U74C,0.86
24,A35U U74A,0.89

row,Variant,self-cleavage
1,G36A A65G,0.17
2,A35C U66A,0.21
3,A35C U66C,0.5
4,G36A U72A,0.26
5,G36A U72C,0.25
6,A35C U78C,0.73
7,A35C U78A,0.74
8,A35U C68A,0.11
9,A35G C62A,0.52
10,A35G C62U,0.34
11,A35G C62G,0.51
12,A35U A77U,0.59
13,A35U A77G,0.57
14,A35U C62A,0.13
15,A35U C62G,0.28
16,A35U C62U,0.13
17,A35C A65G,0.34
18,A35G U76G,1.49
19,A35G U76A,1.33
20,A35G U76C,1.29
21,G36A A64U,0.14
22,G36A A64G,0.15
23,A35C U49C,0.4
24,A35U G63U,0.52

row,Variant,self-cleavage
1,A35U G63C,0.45
2,A35U G63A,0.27
3,G36A G42U,0.13
4,A35G C39G,0.59
5,A35G C39U,1.21
6,A35G C39A,0.95
7,A35G C81A,1.3
8,A35G C81U,1.29
9,A35C A57C,0.28
10,A35C A57G,0.93
11,A35C A56G,0.77
12,A35C A56U,0.53
13,A35G A65G,1.19
14,A35G A65U,0.96
15,A35G A65C,0.67
16,A35G G42C,0.16
17,A35G G42A,0.5
18,A35G U60C,1.03
19,A35G U60G,1.04
20,A35G U60A,1.14
21,G36A G61C,0.16
22,A35C A47G,0.81
23,A35C A47U,0.63
